The target of this data set is T1, RAD51B;RAD51C;RAD51D;XRCC2 (Homo sapiens;Homo sapiens;Homo …, UniProt O15315;O43502;O75771;O43543 1-384;1-376;1-328;1-280, |||).
T1 sequence 1: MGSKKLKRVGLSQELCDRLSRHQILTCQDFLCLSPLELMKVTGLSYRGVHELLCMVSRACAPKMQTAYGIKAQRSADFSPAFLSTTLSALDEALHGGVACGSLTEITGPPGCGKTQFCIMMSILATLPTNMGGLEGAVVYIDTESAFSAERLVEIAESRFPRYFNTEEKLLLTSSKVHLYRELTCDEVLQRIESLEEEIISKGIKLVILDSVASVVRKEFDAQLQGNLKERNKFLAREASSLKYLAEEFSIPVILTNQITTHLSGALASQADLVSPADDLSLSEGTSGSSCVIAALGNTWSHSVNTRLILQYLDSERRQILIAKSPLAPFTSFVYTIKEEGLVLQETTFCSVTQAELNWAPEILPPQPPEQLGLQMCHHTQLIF
T1 sequence 2: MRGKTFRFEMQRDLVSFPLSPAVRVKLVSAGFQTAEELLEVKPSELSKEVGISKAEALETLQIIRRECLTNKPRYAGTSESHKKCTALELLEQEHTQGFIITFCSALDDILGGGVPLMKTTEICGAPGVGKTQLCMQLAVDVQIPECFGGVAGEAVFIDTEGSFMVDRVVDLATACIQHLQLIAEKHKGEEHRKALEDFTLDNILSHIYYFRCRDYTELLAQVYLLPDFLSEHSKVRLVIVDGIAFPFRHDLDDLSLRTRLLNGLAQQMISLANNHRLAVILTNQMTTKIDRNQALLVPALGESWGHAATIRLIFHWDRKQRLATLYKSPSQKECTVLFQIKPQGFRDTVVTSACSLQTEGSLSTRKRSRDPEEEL
T1 sequence 3: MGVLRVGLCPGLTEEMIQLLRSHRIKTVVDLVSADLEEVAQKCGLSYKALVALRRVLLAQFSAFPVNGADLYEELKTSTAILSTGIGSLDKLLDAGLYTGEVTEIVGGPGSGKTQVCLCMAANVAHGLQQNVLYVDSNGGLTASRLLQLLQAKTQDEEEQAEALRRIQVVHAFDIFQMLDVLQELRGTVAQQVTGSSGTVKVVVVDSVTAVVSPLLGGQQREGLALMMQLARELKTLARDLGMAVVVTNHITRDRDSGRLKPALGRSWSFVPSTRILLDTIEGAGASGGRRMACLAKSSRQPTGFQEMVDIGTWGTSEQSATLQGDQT
T1 sequence 4: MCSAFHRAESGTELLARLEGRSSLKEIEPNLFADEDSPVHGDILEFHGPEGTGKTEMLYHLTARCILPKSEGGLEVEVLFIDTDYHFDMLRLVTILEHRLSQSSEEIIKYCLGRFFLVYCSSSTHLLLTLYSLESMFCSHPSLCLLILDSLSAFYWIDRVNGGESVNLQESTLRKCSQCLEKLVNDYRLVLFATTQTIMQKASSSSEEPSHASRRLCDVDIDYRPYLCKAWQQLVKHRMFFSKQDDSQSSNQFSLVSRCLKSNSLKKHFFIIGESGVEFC
Kind of data set: EMSA; 1 mM ATP, 1 mM Mg acetate; EMSA: 1 nM DNA, 20 mM Tris-acetate pH 7.5, 1 mM DTT, 1 mM magnesium acetate, 0.1 mg/ml BSA, 1 mM ATP, 30 min at 37 C; 6% PAGE in 1x TBE at 4 C. The following applies: protein: recombinant;recombinant;recombinant;recombinant; tags: FLAG;10xHis;none;none; copies: 1;1;1;1; label: 5'-32P.

The record followed here is paper PMC9371921, “Strand annealing and motor driven activities of SMARCAL1 and ZRANB3 are stimulated by RAD51 and the paralog complex” (Nucleic Acids Research, 2022).

B1: 70-mer ssDNA (PC210) (ssDNA)
DNA: GTAAGTGCCGCGGTGCGGGTGCCAGGGCGTGCCCTTGGGCTCCCCGGGCGCGTACTCCACCTCATGCATC
Take B1: the binding result is reported as “binds”.
